From US11857601

What was measured:
hIL2Rβ [1] = assay: literature reference; Charych, PLOS ONE 2017
hIL2Rα [2] = assay: literature reference; Charych, PLOS ONE 2017
hIL2Rβ [3] = assay: literature reference; Stauber, PNAS 2006
hIL2Rα [4] = assay: literature reference; Stauber, PNAS 2006

Substance | Kd (hIL2Rβ [1]) [nM] | Kd (hIL2Rα [2]) [nM] | Kd (hIL2Rβ [3]) [nM] | Kd (hIL2Rα [4]) [nM]
NKTR-214 (IL2) | 239 | 8.6 |  | 
NKTR-214 (1-PEG-IL2) | 1770 | 190 |  | 
NKTR-214 (2-PEG-IL2) | 3950 | 487 |  | 
hIL2w |  |  | 144 | 10
